Reference: the nanobody polyreactivity screen of Harvey et al. (2022)

assay: yeast display, Sf9 membrane polyspecificity reagent, FACS + sequencing; frameworks hold sequencing errors
Method in brief: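 A synthetic nanobody library was expressed on Saccharomyces cerevisiae BJ5465 by galactose induction for 36–48 hours. The library was stained for 1 hour at 4 °C with 10% biotinylated, detergent-solubilized Sf9 membrane reagent and enriched with streptavidin microbeads before FACS. Low and high (top ~1%) gates were set on anti-HA fluorescence for expression and streptavidin fluorescence for reagent binding, and each polyreactivity label reflects the gate of origin.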

Sequence	polyreactivity (PSR sort gate)
QVQLVESGGGLVQAGGSLRLSCAASGGTFPYYAMGWYRQAPGKERELVAAITWDGGSTYYADSVKGRFTISRDNAKNTVYLQMNSLKPDATAVYYCNVRYYRYISRYDYWVQGTQVTVSS	high polyreactivity
QVQLVESGGGLVQAGGSLRLSCAASGGTFQQHAMGWYRKAPGTERELVAAISRSGGNTYYADSVKGRFTISRDNSKNTVYFQMNSLKPEDTAVYSCAVVSSSQYSRYTSQWKEYYWGKGTQVTVSS	low polyreactivity
QVQLVESGGGLVQAGGSLRLSCAASGGTFQRYVMGWYRQAPGKERELVAAISRSGSTYADSVKGRFTISRDNAKNTVYLQMNSLKPEDTAVYYCNVVRYYRYYLHGYDYWGQGTQVTVSS	high polyreactivity
QVQLVESGGGLVQAGGSLRLSCAASGGTFQYYTMGWYRQAPGKERELVAGISSGGSTYYADSVKGRFTISRDNAKNTVYLQMNSLKPEDTAVYYCNAVSRRKTYGYRIIKYDYWGQGTQVTVSS	high polyreactivity
QVQLVESGGGLVQAGGSLRLSCAASGGTFRPNAMGWYRQAPGKERELVAAITRSGGSTYYADSVKGRFTISRDNAKNTVYLQMNSLKPEDTAVYYCARDLRECGQGTQVTVSS	low polyreactivity
QVQLVESGGGLVQAGGSLRLSCAASGGTFRPNAMGWYRQAPGKERELVAAITRSGGSTYYADSVKGRFTISRDNAKNTVYLQMNSLKPVDTAVYYCARDLREWGQGTQVTVSS	low polyreactivity
QVQLVESGGGLVQAGGSLRLSCAASGGTFRRYAMGWSRQAPGKERELVAAITRSGTNTYYADSVKGRFTISRDNAKNTVYLQMNSLNPEDTAVYYCAADGFGKYWGQGTQVTVSS	high polyreactivity
QVQLVESGGGLVQAGGSLRLSCAASGGTFRYYAMGWYRQAPGKEREFVAAITSSGGSTYYADSVKGRFTISRDNAKKTVYLQMNRLKPEDTAGYYCATDNPFLWWFRPDQHGMGYWGQGTQVTVSS	low polyreactivity
QVQLVESGGGLVQAGGSLRLSCAASGGTFSKNAMGWYRQAPGKERELVADIRSGGSTYYADSVKGRFTISRDNAKNTVYLQMNSLKPEDTAVYYCNADGDVNEYDYWGQGTQVTVSS	low polyreactivity
QVQLVESGGGLVQAGGSLRLSCAASGGTFSKYAMGWYRQAPGKEREFVAAITVSGGGSYYADSVKGRFTISRDNAKNTVYLQMNSLKPEDTAVYYCAADLAWTASDYWGQGTQVTVSS	low polyreactivity
QVQLVESGGGLVQAGGSLRLSCAASGGTFSKYAMGWYRQAPGKERELVAAITYSSGSKYYADSVKGRFTISRDNAKNTVYLQMNSLKPEDTADYYCAARSGLYWWRFDYWGQGTQVTVSS	high polyreactivity
QVQLVESGGGLVQAGGSLRLSCAASGGTFSNYAMGWYIPAPGKERELVAAITSGGGSTYYADSVKGRFTISRDNAKNTVYLQMNSLKPEDTAVYYCAARRSSYGYWGQGTQVTVSS	high polyreactivity
QVQLVESGGGLVQAGGSLRLSCAASGGTFSVYGMGWYRPAPGKERDLVAVINGTDGITYYADSVKARVTISRDNAKNTVYLQMNSLKPEDTAVYDCAKDSDFLAYHGLDHWGQGTLVTVSS	low polyreactivity
QVQLVESGGGLVQAGGSLRLSCAASGGTFSYNAMGWYRQAPGKERELVAAISSRGGSTYYSDSVKGRFTISRDNAKNTDYLQMNSLKPEDTAVYYCNAVRGVWYGSWGQGTQVTVSS	high polyreactivity
QVQLVESGGGLVQAGGSLRLSCAASGGTFSYYAMGCYRQAPGKERELVASISTDGGSTYYADSVKGRFTISRDNAKNTVYLQMNSLKPEDTAVYYCNARPRGYSDRYGYWGQGTQVTVSS	high polyreactivity
QVQLVESGGGLVQAGGSLRLSCAASGGTFSYYAMGWYRQAPGKERELFASISSGGSTYYADSVKGRFTISRDNAKNTVYLQMNSLKPEDTAVYYCNAEARSRRYRYDYWGQGTQVTVSS	high polyreactivity
QVQLVESGGGLVQAGGSLRLSCAASGGTFTHNAMGWYRQAPGKDWELVAAISRSGGSTSYADSVKGRFTISRYNAKNTVYLQMNSLKPEDTAVYYCADRISRQRSYSRDYWGQGNQVTVSS	high polyreactivity
QVQLVESGGGLVQAGGSLRLSCAASGGTFTWYAMGWYRQAPGKERELVAAISSDGSTYYADSVKGRFTISRDNAKNTVYLQMNSLKPEDTAVYYSAAYSSWGGFDYWGQGTQVTVSS	low polyreactivity
QVQLVESGGGLVQAGGSLRLSCAASGGTFVFYAMGWYRQAPGKERELVAAISSAGRTYYADSVKGRFTISRDNAKNTVYFQMNSLKPEDNAVYYCAAVSSQYDGRYYYWGQGTQVTVSS	high polyreactivity
QVQLVESGGGLVQAGGSLRLSCAASGGTFVPYAMGWYRQAPGKERELVAAITIGGSTSYADSVKGRFTISRDNAKNTVYLQMNSLKPEDTAVYYCNARSYPDYIYWSQRYDYDYWGQGTQVTVSS	low polyreactivity
QVQLVESGGGLVQAGGSLRLSCAASGGTFVRYAMGGYRPAPGKERELVAAISSRGGSTYYADSVKGRFTISRDNAKNTVFLQMNSLKPEDTAVYYCAARPGYYDFYWGQGTQVTVSS	high polyreactivity
QVQLVESGGGLVQAGGSLRLSCAASGGTFVYNAMGWNRQAPGKERELVAAISRSGSRTYYADSVKGRFTISRDNAKNTVYLQMNSLKPEDTAVYYCAARGYYPEYNHWGQGSQVTVSS	high polyreactivity

Sequence	polyreactivity (PSR sort gate)
QVQLVESGGGLVQAGGSLRLSCAASGGTFWYYAMGWYRQAPGKERELVASISRGGSTNYADSVKGRFTISRDNAKNTVYLLMNSLKPEDTAVYYCNAGLRVGPRRYVDYEYDYWGQGTQVTVSS	low polyreactivity
QVQLVESGGGLVQAGGSLRLSCAASGGTFYHYAMGLYRQAPGKERALGAAIRSGARTNYADSVKGRFTISRDNAKNTVYLQMNSLYPEDTAAYSCAAARVRGYVRSGLDYWGQGTQVTVSS	high polyreactivity
QVQLVESGGGLVQAGGSLRLSCAASGGTFYIYVMGWYRQAPGKERELVAAITSGDSTNYADSVKGRFTISRDNAKNTVYLQMNSLKPEDTAVYYCATGYWELRYDYWGQGTQVTVSS	low polyreactivity
QVQLVESGGGLVQAGGSLRLSCAASGGTFYPYAMGWYRQAPGKVRELVAAITSCGSTNYADSVKGRFTISRDNAKKTVYLQMNSLKPEDTAVYYCAAKSSYIRPTNSDDYDYWGQGTQVTVSS	low polyreactivity
QVQLVESGGGLVQAGGSLRLSCAASGGTFYRNAMGWYRQAPGKERELVAAITKRGGSTYYADSVKGRFTISRDNAKNTVYIQINSLKPEDTAVYYCAKDAAPIPGNDSDYWGQGTQVTVSS	high polyreactivity
QVQLVESGGGLVQAGGSLRLSCAASGGTFYRSAMGWYRQAPGKERELVAAISTGSSTYYADSVKGRFTISRDNAKNTVYLQINSQKPEDTAVNYCAARYWERYRSFNYWGQGTQVTVSS	high polyreactivity
QVQLVESGGGLVQAGGSLRLSCAASGGTFYRYAMGWYRQAPGKEREFVASITQRGGRTYYADSVKGRFTISRDNAKNTVYLQMNSLKPEDTAVYYCAVEYYNYPNSRRYDYWGQGTQVTVSS	high polyreactivity
QVQLVESGGGLVQAGGSLRLSCAASGGTFYVYAMGWYRQAPGKERELVAAISTSGGSTYYADSVKGRFTISRDNAKNTVYLQMNSLKPEDTAVYYCAARRVSFSGHPRYGYWGQGTQVTVSS	high polyreactivity
QVQLVESGGGLVQAGGSLRLSCAASGGTFYYNAMGWYRQAPGKERELVAAITSGDRTYYADSVKGRFTISRDIAKNTVYLQMNSLKPEDTAVSYCARAGKTRAGYDYWGQGTQVTVSS	high polyreactivity
QVQLVESGGGLVQAGGSLRLSCAASGGTITRYAMGWYRQAPGKERELVAAISSSGGSTYYADSVKGRFTISRDNAKNTVYLQMNSLKPEDTAVYYCAAEGYTLWYWLEFEYWGQGTQVTVSS	high polyreactivity
QVQLVESGGGLVQAGGSLRLSCAASGGTITSYAMGWYRQAPGKERELVAAITRSGGSTYYADSVKGRFTISRDNAKNTVYLQMNSLKPEDTAVYYCAARYSTYPWYNSWGQGTQVTVSS	high polyreactivity
QVQLVESGGGLVQAGGSLRLSCAASGGTIVWNAMGWYRQAPGKERELVAAITWSGGSTYYADSVKGRFTISRDNAKNTVYLPMNSLQPEATAVYYCNADRFGRAHVYPEFDYWGQGTQVTVSS	low polyreactivity
QVQLVESGGGLVQAGGSLRLSCAASGGTLATYAMGWYRQAPGKERELVARIRIGGSTNYADSVKGRFTISRDNAKNTVYLQMNSLKPEDTAVYYCNKYSVLSRQRYSHPVNYDSWGQGTQVTVSS	high polyreactivity
QVQLVESGGGLVQAGGSLRLSCAASGGTLFTNAMGWYRQAPGKERELVAAISWRGGRTYYADSVKGRFTISRDNAKNTVYLQMNSLKPEDSAVYYCAADVSAVQGYYYWGQGTQVTVSS	low polyreactivity
QVQLVESGGGLVQAGGSLRLSCAASGGTLRRYAMGWYRQAPGKERELVAAIIDRSGSTSYADSVKGRFTISRDNAKNTVYLQMNSLKPEDTAVYYCAARTYRTRYYYWGQGTQVTVSS	high polyreactivity
QVQLVESGGGLVQAGGSLRLSCAASGGTLRYYVMGWYRQAPGKERELVAAISWSGDSTYYADSVKGRFTISRDNAKNTVYLEMNSLKPDDTAVYYCAATYYVTYYYGQANHGYDYWGPGTQVTVSS	low polyreactivity
QVQLVESGGGLVQAGGSLRLSCAASGGTLWGYGMGWYRQAPGKEREFVAAITWSGGNTNYADSVKGRFTISRDNAMNTVYLLMNSLKPEDTAVYYCNARVYYKRKYDYWGQGTQVTVSS	high polyreactivity
QVQLVESGGGLVQAGGSLRLSCAASGGTSQGNAMGWYRQAPGKERELVAAISWSGGTTYYADSVKGRFTISRDNAKNTVYLQMNSLKPEDTAVYYCAAYRYAGRYVPYGDYDYWGQGTQVTVSS	low polyreactivity
QVQLVESGGGLVQAGGSLRLSCAASGGTVWYYTMGWYRQAPGKERELVARITGGSRTNYADSVNGRFTISRDNAKNTVYLQMNSLKPEDTAVYYCARTSWSGVSYDYWGQGTQVTVSS	high polyreactivity
QVQLVESGGGLVQAGGSLRLSCAASGGTYELYVMGWYRQAPGKERELVAAISVNGDDTYYADSVKGRITISRDNAKNTVYLQMNSLKPEDTAVYYCAAEVLGSYYLTGYDYWGQGTQVTVSS	high polyreactivity
QVQLVESGGGLVQAGGSLRLSCAASGHFFFYYPLGWYRQAPGKERELVARFTLSGTSTYYADSVKGRFTISRDNAKNSVYLQMNSLKPEDTAVYYCAAPYFTYGQDDDDYWRQGTQVTVSS	low polyreactivity
